The source of these data is article PMC12278352, “Characterization of DnaB–DnaG Interaction in M. tuberculosis Using Small‐Angle X‐ray Scattering‐Based Dissociation Assay” (Chembiochem, 2025).

Series [1] concerns the molecule itself. In words: cross-linking; Fe(II)-catalysed cross-linking of T7 primase (15 μM) with 1 mM ATP, ferrous chloride, H2O2, ascorbic acid, room temperature 45 min; products analysed by Superdex 200 SEC, SDS-PAGE and MALDI-TOF.
Series [2] deals with the molecule itself. The experiment in a line: SAXS; T7 primase at constant concentration (1 mg/ml in the methods, 50 μM in the legend) with increasing 4-mer RNA (5'-ACCC-3'), RNA:protein molar ratio 1 to 10, in the presence of ATP/CTP, RNA and Mg2+; 20 mM Tris-HCl pH 7.5, 1 mM DTT; 4 °C; Rg against theoretical monomer (24 Å) and dimer (27 Å).
Series [3] concerns the molecule itself. The experiment in a line: SPR; full-length DnaG (7.2 μg) immobilised on a GLC chip by amine coupling; soluble DnaG 0-17 μM, 60 μL/min; signal at equilibrium; profile did not follow a pure 1:1 fit; monomer to dimer.

What is called stoichiometry N is the number of molecules, sites or subunits per partner or assembly. A word on the Kd: it is the concentration at which binding is half-saturated. Lower therefore signals tighter binding.

B1: primase domain of gene 4 protein (gp4) from bacteriophage T7 (residues 1–271) (domain or fragment, UniProt P03692 1-271, looked up)
chain: MDNSHDSDSVFLYHIPCDNCGSSDGNSLFSDGHTFCYVCEKWTAGNEDTKERASKRKPSGGKPMTYNVWNFGESNGRYSALTARGISKETCQKAGYWIAKVDGVMYQVADYRDQNGNIVSQKVRDKDKNFKTTGSHKSDALFGKHLWNGGKKIVVTEGEIDMLTVMELQDCKYPVVSLGHGASAAKKTCAANYEYFDQFEQIILMFDMDEAGRKAVEEAAQVLPAGKVRVAVLPCKDANECHLNGHDREIMEQVWNAGPWIPDGVVSALSL
notes: primase domain of gene 4 protein (gp4), bacteriophage T7, residues 1-271; For the NMR spectra the protein was 15N-labelled and deuterated; Monomer without cofactors, dimer with ATP/CTP, RNA and Mg2+; also called T7 primase; T7 DNA primase
For B1, the “stoichiometry N” value in series [1] was found to be 3; in series [2], 2.

B2: M. tuberculosis DnaG primase, full-length (enzyme)
chain: MSGRISDRDIAAIREGARIEDVVGDYVQLRRAGADSLKGLCPFHNEKSPSFHVRPNHGHFHCFGCGEGGDVYAFIQKIEHVSFVEAVELLADRIGHTISYTGAATSVQRDRGSRSRLLAANAAAAAFYAQALQSDEAAPARQYLTERSFDAAAARKFGCGFAPSGWDSLTKHLQRKGFEFEELEAAGLSRQGRHGPMDRFHRRLLWPIRTSAGEVVGFGARRLFDDDAMEAKYVNTPETLLYKKSSVMFGIDLAKRDIAKGHQAVVVEGYTDVMAMHLAGVTTAVASCGTAFGGEHLAMLRRLMMDDSFFRGELIYVFDGDEAGRAAALKAFDGEQKLAGQSFVAVAPDGMDPCDLRLKCGDAALRDLVARRTPLFEFAIRAAIAEMDLDSAEGRVAALRRCVPMVGQIKDPTLRDEYARQLAGWVGWADVAQVIGRVRGEAKRTKHPRLGRLGSTTIARAAQRPTAGPPTELAVRPDPRDPTLWPQREALKSALQYPALAGPVFDALTVEGFTHPEYAAVRAAIDTAGGTSAGLSGAQWLDMVRQQTTSTVTSALISELGVEAIQVDDDKLPRYIAGVLARLQEVWLGRQIAEVKSKLQRMSPIEQGDEYHALFGDLVAMEAYRRSLLEQASGDDLTA
notes: DnaG primase, Mycobacterium tuberculosis, full length (the truncated form ends at amino acid 639); also called full DnaG; full-length DnaG
Take B2: the Kd in series [3] was determined as 2000 ± 300 nM.
